Results on 21 sequences are retold here after the DeepSol protein solubility set.

The nature of this data set: soluble on expression in E. coli; label from the status in PepcDB or PDB records.
“MKAFISENVRGIYAFDENGNLIEKRYFTDKPEKVLDQLLKGEITKDLEELLNSLKEKGYDEFVFEHPELSRRAKELGFSATTEFPNIAGERLRSNPEEFLGENWFEEYYKVGVALTRMRIQEQSGARDKMVIQAIEALDDVDKVINLLVARLREWYSLHFPELDELLPKHPQYVAFVKTVGHRDNINEEVLRELGLSEEKIKKILEAKEKTMGAWMDQTDIEVVRQLAEEIDRLYQLRKKLEDYIDRAMDDVAPNLKALVGAKLAARLISLAGGLRELAMMPSSTIQVLGAEKALFRHLRTGAKPPKHGVIYQYPAINRSPWWQRGKIARALAGKLAIAARVDYFSGEYIAEELKKELEARIREIKEKYPKPPKRKREERKGKKPWKKDKKKKKKKEKPRRRAAALEHHHHHH”: the “soluble on expression in E. coli” value was “not soluble”.

As for “GPLGMATEEAIIRIPPYHYIHVLDQNSNVSRVEVGPKTYIRQDNERVLFAPVRMVTVPPRHYCIVANPVSRDAQSSVLFDVTGQVRLRHADQEIRLAQDPFPLYPGELLEKDITPLQVVLPNTALHLKALLDFEDKNGDKVMAGDEWLFEGPGTYIPQKEVEVVEIIQATVIKQNQALRLRARKECFDRDGKERVTGEEWLVRSVGAYLPAVFEEVLDLVDAVILTEKTALHLRARQNFKDLRGVAHRTGEEWLVTVQDTEAHVPDVYEEVLGVVPITTLGPRHYCVILDPMGPDGKNQLGQKRVVKGEKSFFLQPGERLERGIQDVYVLSEQQGLLLKALQPLEEGEGEERVAHQAGDRWLIRGPLEYVPSAKVEVVEERQAIPLD”, the “soluble on expression in E. coli” value is “soluble”.

In the case of “MKKVEVLKRLENAGVIAVLRADSKEEALKISHAVVEGGMIGLELTFTVPQADEVIRSLVETYHDEKDIVIGAGTVLDAVTARLAIMAGAEFIVSPSFNRETAEICNLYQVPYLPGCMTITEMQTALKSGVDIVKLFPGSTYGPSIISAFQAPLPYLNIMPTGGVSLDNMASWFEAGVTAVGVGGNLLAHAKTGEFGKVTALAKQYMAKFREIKEN”, the “soluble on expression in E. coli” value is “not soluble”.

As for “MSLVWKLLGGSKKEFVTPYASLLPDGHTLKEYSDSLVKKTIKAKELGFKAAKLEICIKGPYSHNNLQIEDDREFANMVKLCRKAVGNDMILMADVAYAWPDWKTALIALNMVENEDLFFIETPLPIEDLKGSKKLAEHSKTRIATGEMLQTRFECFETIEKGGIDVIQPDVGRVGGLTEAKRVCDYAEDNGILVVPHCWKSAIGIAASAHLSATTNMCPYIEFLPKELAESQLRKDLVLKELDVVDGQIPLPQQPGLGIEINDDKLKEYGVEGHHHHHH”, the “soluble on expression in E. coli” value was “not soluble”.

As for “MQEVKQWPVKIMLVHPKAPFLKGEKIVIAADCAVLVNRDIRDRFESDAVIIGCPMLEDPRRMFERIKMIVAESDAKLEVYTMEVPCCHALHLMVEKAKEEHGKQTESEKYIVRVSGAVEPYSKKIDESMIEAERRAHRGH”, the “soluble on expression in E. coli” value is listed as “not soluble”.

On to “GKDFSYWVKMTTGYSDNKIKEAGFQATPGFDDIVRGERSDRGVWGYECIGMFRTYQDIEEYFAVNKITSYLGNTKDNIHPGMLIYRDVRGQRNADGTYGEADGVIDQNDYVKISN”, for which the “soluble on expression in E. coli” value is given as “not soluble”.

As to “MGSDKIHHHHHHMINTALRLAAPEIEAFLQGRIIAAMPNKFITPGREFALCPSDASINLLPVEQYYRSSFLPIAQSAFAQLNIQGVLIQPQQMNLLIDEEQLKLPILAYETVLIKTWAKCELCQIINNTESFAALSQLTIWTTEALKEILRQKQNIFLAYLRVYELPKSIEVPIKSNSQFVALSQPLNVSEDKPVLKDRTFAQRKHQLEKLQPPLHPELEELQSAIASLSISQPAAKQLDDDIKVFLGWSSDKLTNPLDSDLPWIQNIAKVGNSSDGHTFEKLVRRGLLKLGFTGSGLNPDATGGAGGMDFYAEQPYPIVGECKATKTEKVTDGTPAQLLKIGMNHLGKFQYDNSIKLIVAAGELNFYALRTATENQMNIVSPETLQKLVELQAHYKNSINLLDLSGNKRE”, the “soluble on expression in E. coli” value is given as “not soluble”.

As to “MGSDKIHHHHHHMGKLSLAAKITHVPSMYLSELPGRHHGCRAEAIRGHQAIGERCRALGVDTIVVADTHWLVNAGYHVNCNGHFAGVYTSNELPHFIRDMRYEYPGNPALGHLIAASANERGIGTRAHEIDSLELEYGTLVPMRYMNADQRFKVVSIAGWCMWHALDESRRFGEALRHAIDASDANVAFLASGSLSHRFNDNGSPEEAIHMISREFYRQVDLRVVELWKQGDFATFCKMLPEYNAHCHGEGGMHDTAMLLGLLGWDRYDKPVEIVTDYFASSGTGQINAIFPLP”, the “soluble on expression in E. coli” value is listed as “not soluble”.

As for “MTDVEQPVSVEDQQAQAQSYYDQVLGNAYVQTAINAYTKTKEFHPLLNSTLNSAEEKVSTVGNYAAQKAYDGYNSYYVKPKNTAYEAVSYGTERAKTAVESGKQAAIVGGTFGIGAAVVLTQFSLALSAGGAALVLEQVDSAKKLGSSAISTIKEAELAVEHRIFSALHQAQRIAMVPVEKITENTNSLLDILDGAVQKGLNIEVPPSVNLTIGQRVKNLASLIVQGVSNKAHDHVIDPINERARNYLEQLSQSFVLLDIVREKKTWVIEKSNELSTSVFDFKKTLEEEAQKYKVAPEEMLMKHIQSTSEQLSTQLQSLREKGQNVFGDGTKIDSTIDYLENLKKNFTDAEDVYKVRDEVLNEGRQRIAELSTWTTSLLIISAEWQFEPEDLLIEELYFDAPPPVRTRNLYRNRA”, the “soluble on expression in E. coli” value was “not soluble”.

“MGSDKIHHHHHHMIDKLEFFIALAKEEHFGRAAEACGVTQPTLSAGIKQLEGQLGVMLVNRGSRFQGLTPEGKQVLVWARRIVGDSRSMREEMRAARHGLSGRIRIAAIPTALAMVARLTTPFREKHPGVTFSVLSRTSIEVLSLLGNFDIDAGITYLDNEPLGRVTSVPLYDERYQLITAVGNPYSDRDKVTWAEISRLPLCLLTPDMQNRRIIDQHLAEAGVQVRPTLESNSMIVLFSHIRTGKWSSIMPLNLAETFGFSEPIRAIPIVEPDASHTVGLVAAPREPHTPLVQALLDEAMALADDFRAHR”: the “soluble on expression in E. coli” value is recorded as “not soluble”.

Regarding “MDPDLWEETGHNSELLLRLLPAARLTAVARDPQYTGRLEQVWQQYRTYLGAPVNRGNLPGLESNQVIAYFSAEFGLSEALPIYAGGLGFLAGDHLKSASDLGLPLVGVGLLYREGYFRQRLDRRGQQREVYSRYDFYQLPLELERRADGSPLEVQVNFPDPDRQVRARVWRARVGRLNLYLLDSDCPGNLEADRLITDRLYGGDLEKRIQQEILLGIGGVRALAALGINATIFHLNEGHSAFLGLERIRQLQARYGLDLASARELATCSNIFTTHTPVPAGIDVFPPYLMDKYFTEYYQSLGLSRHEFLALGRQDPNNQQEPFNMAVLALRLSAWANGVSQLHGQTARRMWQVIWPGVPVAEIPIGAITNGVHTTSWVGEKMAALYDRYLGTAWRELEHHHHHH”, the “soluble on expression in E. coli” value is “not soluble”.

Turning to “MGLDISDETLKIQKKKENENRVIILMIPGNPGNEGFYAHFGREVLQNLIKKDEDEQKNLKNQYLFYTVSSLNHVRMPDHLKDDGEHRNHDRISLEEQVNHKLSFVKEHLPRGKQLYILGHSIGSYMMLRIIPEVIKEGFHVEKAVGLFPTIVHMANSPNGKRLHGTLATLNHHDWLTKTICWWVDYLPNSIKKFLVGLNLRHPNTPPEIVDAAVELVHMDVFRNIVHMSNDELDIVLDLDERLLEKQDVVHFYYGLKDGWCPVQHGYSMRDRLGEEQVTLDEDNCEHAFVISEGDIMARNVIKYFD”, the “soluble on expression in E. coli” value is “not soluble”.

“MRVLATAADLEKLINENKGRLIVVDFFAQWCGPCRNIAPKVEALAKEIPEVEFAKVDVDQNEEAAAKYSVTAMPTFVFIKDGKEVDRFSGANETKLRETITRHK”: the “soluble on expression in E. coli” value is “soluble”.

Take “MSQTVHFQGNPVTVANVIPQAGSKAQAFTLVAKDLSDVSLSQYAGKRKVLNIFPSIDTGVCAASVRKFNQLATEVENTVVLCVSADLPFAQSRFCGAEGLSNVITLSTLRNNEFLKNYGVEIVDGPLKGLAARAVIVLDENDNVIFSQLVDEITHEPDYDAALNVLKA”: the “soluble on expression in E. coli” value is recorded as “not soluble”.

Consider “EWVAPTLSQKAENIKAAAINGKISTGNTGLWLKEKNSIINVREMLPDHTLLGIKIWARNDKNELAEAVEADSAVLNSDGSWQLKNIRRSTLGEDKVEVSIAAEENWPISVKRNLMDVLLVKPDQMSVGELTTYIRHLQNNSQNTRIYAIAWWRK”, for which the “soluble on expression in E. coli” value is on record as “not soluble”.

For “MNAMERENTVKSVRRALQIIEIVSTKKDGLGVTEIAKQMDINKSSVYRILTTLAQYGYIEQHPETERYKLGYKFLELSSKLLDSIDLRQEAKPYLRELEKETNEVIHLVVYDQGEVIYIEKLEGTETLRMHSKVGKRAPMHCTAVGKAILAHLPPAVAAEIIDRKGLPKHTDWTITDREAFFRELETVRQNGYALDLEENEYGIRCVAVPIFDYTGGVVAAISVSGPTIRMTDDRITSLTVRMRQIGKELSARLGYRGAHSVQL”, the “soluble on expression in E. coli” value is on record as “soluble”.

For the sequence “GIDPFTNEAASAAGVVGGMVDSITQAINQLDEGPMGDPEGSFVDYQTTMVRTAKAIAVTVQEMVTKSNTSPEELGPLANQLTSDYGRLASQAKPAAVAAENEEIGAHIKHRVQELGHGCSALVTKAGALQCSPSDVYTKKELIECARRVSEKVSHVLAALQAGNR”, the “soluble on expression in E. coli” value is “soluble”.

As to “MTRTPFSRRRFLQLSGGLALAGVSLPLWAHDMADMAGGDAHPALRLPEPYKIKLAINKSAVCLAPVAVAEQQKIFSKYNLDVEFVNFGNSTDVLLEAIATGKADAGVGMALRWLKALEQGFDVKLTAGTHGGCLNLLTAKDSPFGGLESLKGQTIGVTDMAGPDKNFFAILLKRHGIDPISDVQWKVYPADLLSVALDKREIAAISGSEPFSYRLLETGKYQLIASNMTGDYANLSCCVLGVSGSLARDHKPAAAALTQAILEAHSYAAAHPESVAQSFLAHALNTSEAEVSGILHGQGHGHHAVGEAFVKELTQYAVDLQRVQVIKPGTDPHQFAESIYANVFA”, the “soluble on expression in E. coli” value is on record as “not soluble”.

For the sequence “MAHHHHHHMLSSAAPKRYKFDQRGNLTEVNFLACKSVVPPRTYVHSKNSLTCSTSVIPELHQTAHHCKGRSGANGTSGTNGKSGSTSKMAMSQENIFEAEAISTNAYAHGGGPSSLHSMNMVHSVSSVGSGGNDPSQYVPNQCGNMNMMGTGLSGHEMNNNAPLLFVDGAPYCADDAGQGIDPGVVAVSNALFAYNSAFQSIPIKTSPNVFRRRTKGEGNSEWCNAFVTRVDPCECGDPDEQFKPYEVTKYYDDGQVKTVFNFDQDSAPQEQLM”, the “soluble on expression in E. coli” value is given as “soluble”.

Take “MSTEYGCQVTNKFGLPSDDDDEYDDPRELIQKVSQIAAKKKEEKSVKPAQPVKPAAAPVAATKTDGAAGRGRGGRGRGRGGAGRPRDGERVSNENGDRPQGENRRGGPRRGGERGAARPAGRGGRGGFTRENREGEEPKQEVSFEDGQDTRAPRRRGGFTLGGGPSGGRGGGRGGRGRQFDRQSGSDRTGVRSFDKKDGHGKGNWGDQKDELAGETENIAPEGAESTEPEVPREKTAEELAYEAELAVLAKQKTLKEFKAAAKADAPKFNTRKAGEGAADTFGKLVPIKKEVIPDREEDEVVVIHKAPRKQVLDISITFRNDRPERERNDRSERPQRGGPRGGGRGGGRGGQRQGGHGGRNNTPFNASDDAFPALGAK”: the “soluble on expression in E. coli” value is listed as “not soluble”.

For the sequence “MSLGSTQLQLHGLLSNISSKEGTYAKLGGLYTQSLARLVAKCEDLFMGGQKKELHFNENNWSLFKLTCNKPCCDSGDAIYYCATCSEDPGSTYAVKICKAPEPKTVSYCSPSVPVHFNIQQDCGHFVASVPSSMLSSPDAPKDPVPALPTHPPAQEQDCVVVITREVPHQTASDFVRDSAASHQAEPEAYERRVCFLLLQLCNGLEHLKEHGIIHRDLCLENLLLVHCTLQAGPREKQLPRLIISNFLKAKQKPGGTPNLQQKKSQARLAPEIVSASQYRKFDEFQTGILIYELLHQPNPFEVRAQLRERDYRQEDLPPLPALSLYSPGLQQLAHLLLEADPIKRIRIGEAKRVLQCLLWGPRRELVQQPGTSEEALCGTLHNWIDMKRALMMMKFAEKAVDRRRGVELEDWLCCQYLASAEPGALLQSLKLLQEGHHHHHH”, the “soluble on expression in E. coli” value is listed as “soluble”.
